System: Lenti-X 293T cells
Test: YFP fluorescence quenching anion reporter plate reader assay of engineered receptors stimulated with acetylcholine or a non-native ligand
Type: cell-based
Details: for percent quench of YFP fluorescence, 30 nM TC-6683: TC-6683 30 nM; for percent quench of YFP fluorescence, 300 nM TC-6683: TC-6683 300 nM; for percent quench of YFP fluorescence, 3 uM TC-6683: TC-6683 3 uM; for percent quench of YFP fluorescence, 30 uM TC-6683: TC-6683 30 uM; for percent quench of YFP fluorescence, 100 uM TC-6683: TC-6683 100 uM; for percent quench of YFP fluorescence, 10 uM ach: acetylcholine 10 uM; for percent quench of YFP fluorescence, 100 uM ach: acetylcholine 100 uM; for percent quench of YFP fluorescence, 1 mM ach: acetylcholine 1 mM; for percent quench of YFP fluorescence, 3 mM ach: acetylcholine 3 mM
Procedure, shortened: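 YFP quench was followed for about 1 min 43 s after ligand delivered in iodide-based ECS, pH 7.2. Values are end-of-read fluorescence (last 10 s) divided by the pre-ligand baseline (15 s). Cells were LX293T, transfected with receptor DNA a day before the assay.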

B1: CODA339: engineered chimeric LGIC receptor, L131D in SEQ ID NO: 33 (protein)
chain: MRCSPGGVWLALAASLLHVSLQGEFQRKLYKELVKNYNPLERPVANDSQPLTVYFSLSLLQIMDVDEKNQVLTTNIWLQMSWTDHYLQWNVSEYPGVKTVRFPDGQIWKPDILLYNSADERFDATFHTNVDVNSSGHCQYLPPGIFKSSCPMDLKNFPMDVQTCKLKFGSWSYGGWSLDLQMQEADISGYIPNGEWDLVGIPGKRSERFYECCKEPYPDVTFTVTMRRRMGYYLIQMYIPSLLIVILSWISFWINMDAAPARVGLGITTVLTMTTQSSGSRASLPKVSYVKAIDIWMAVCLLFVFSALLEYAAVNFVSRQHKELLRFRRKRRHHKSPMLNLFQEDEAGEGRFNFSAYGMGPACLQAKDGISVKGANNSNTTNPPPAPSKSPEEMRKLFIQRAKKIDKISRIGFPMAFLIFNMFYWIIYKIVRREDVHNQ
modifications: synthetic sequence of chimeric LGIC
YFP fluorescence quenching using CNL001 (1 nM CNL001, first column): 73.711% | YFP fluorescence quenching using CNL001 (1 nM CNL001, second column): 76.44% | YFP fluorescence quenching using TC-5619/Bradanicline (1 nM brd): 4.12% | YFP fluorescence quenching using TC-5619/Bradanicline (3 nM brd): 19.15% | YFP fluorescence quenching using Varenicline (3 nM var, first column): −0.902 | YFP fluorescence quenching using Varenicline (3 nM var, second column): −7.62 | YFP fluorescence quenching using CNL001 (10 nM CNL001, first column): 77.049% | YFP fluorescence quenching using CNL001 (10 nM CNL001, second column): 77.76% | YFP fluorescence quenching using TC-5619/Bradanicline (10 nM brd): 68.98% | YFP fluorescence quenching using TC-5619/Bradanicline (30 nM brd): 77.29% | YFP fluorescence quenching using Facinicline (30 nM fac): 12.67 | YFP fluorescence quenching using Varenicline (30 nM var, first column): −6.009 | YFP fluorescence quenching using Varenicline (30 nM var, second column): −3.447 | YFP fluorescence quenching using CNL001 (50 nM CNL001, first column): 77.882% | YFP fluorescence quenching using CNL001 (50 nM CNL001, second column): 78.708% | YFP fluorescence quenching using ABT-126 (50 nM abt): −16.65% | YFP fluorescence quenching using CNL001 (100 nM CNL001, first column): 79.567% | YFP fluorescence quenching using CNL001 (100 nM CNL001, second column): 79.273% | YFP fluorescence quenching using CNL002 (100 nM CNL002): 12.83% | YFP fluorescence quenching using ABT-126 (100 nM abt): −12.3% | YFP fluorescence quenching using AZD-0328 (100 nM azd0328): 62.87% | YFP fluorescence quenching using TC-5619/Bradanicline (100 nM brd): 81.41% | YFP fluorescence quenching using ABT-126 (300 nM abt): 18.5% | YFP fluorescence quenching using AZD-0328 (300 nM azd0328): 77.03% | YFP fluorescence quenching using TC-5619/Bradanicline (300 nM brd): 75.79% | YFP fluorescence quenching using Facinicline (300 nM fac): 80.4 | YFP fluorescence quenching using Varenicline (300 nM var, first column): 49.328 | YFP fluorescence quenching using Varenicline (300 nM var, second column): 47.685 | YFP fluorescence quenching using Varenicline (500 nM var, first column): 66.7 | YFP fluorescence quenching using Varenicline (500 nM var, second column): 64.798 | YFP fluorescence quenching using CNL001 (1 uM CNL001, first column): 79.992% | YFP fluorescence quenching using CNL001 (1 uM CNL001, second column): 79.927% | YFP fluorescence quenching using CNL002 (1 uM CNL002): 77.73% | YFP fluorescence quenching using ABT-126 (1 uM abt): 59.09% | YFP fluorescence quenching using TC-5619/Bradanicline (1 uM brd): 82.26% | YFP fluorescence quenching using TC-6987 (1 uM tc6987): 50 | YFP fluorescence quenching using Varenicline (1 uM var, first column): 70.85 | YFP fluorescence quenching using Varenicline (1 uM var, second column): 69.038 | YFP fluorescence quenching using TC-6987 (3 uM tc6987): 80.39 | YFP fluorescence quenching using TC-6987 (5 uM tc6987): 79.93 | YFP fluorescence quenching using Facinicline (10 uM fac): 82.18 | YFP fluorescence quenching using TC-6987 (10 uM tc6987): 80.99 | YFP fluorescence quenching using CNL002 (30 uM CNL002): 80.58% | YFP fluorescence quenching using AZD-0328 (30 uM azd0328): 78.63% | YFP fluorescence quenching using Facinicline (30 uM fac): 82.14 | YFP fluorescence quenching using TC-6987 (30 uM tc6987): 83.11 | YFP fluorescence quenching using TC-6987 (50 uM tc6987): 83.18 | YFP fluorescence quenching using TC-6987 (100 uM tc6987): 82.16 | YFP fluorescence quenching using TC-6987 (300 uM tc6987): 64.58 | YFP fluorescence quenching using TC-6987 (500 uM tc6987): 76.77 | percent quench of YFP fluorescence, 30 nM TC-6683: −18.32% | percent quench of YFP fluorescence, 300 nM TC-6683: −17.25% | percent quench of YFP fluorescence, 3 uM TC-6683: −10% | percent quench of YFP fluorescence, 30 uM TC-6683: −8.51% | percent quench of YFP fluorescence, 100 uM TC-6683: −9.77% | percent quench of YFP fluorescence, 10 uM ach: 4.56% | percent quench of YFP fluorescence, 100 uM ach: 10.19% | percent quench of YFP fluorescence, 1 mM ach: 77.34% | percent quench of YFP fluorescence, 3 mM ach: 77.79%

B2: CODA340: engineered chimeric LGIC receptor, L131E in SEQ ID NO: 33 (protein)
chain: MRCSPGGVWLALAASLLHVSLQGEFQRKLYKELVKNYNPLERPVANDSQPLTVYFSLSLLQIMDVDEKNQVLTTNIWLQMSWTDHYLQWNVSEYPGVKTVRFPDGQIWKPDILLYNSADERFDATFHTNVEVNSSGHCQYLPPGIFKSSCPMDLKNFPMDVQTCKLKFGSWSYGGWSLDLQMQEADISGYIPNGEWDLVGIPGKRSERFYECCKEPYPDVTFTVTMRRRMGYYLIQMYIPSLLIVILSWISFWINMDAAPARVGLGITTVLTMTTQSSGSRASLPKVSYVKAIDIWMAVCLLFVFSALLEYAAVNFVSRQHKELLRFRRKRRHHKSPMLNLFQEDEAGEGRFNFSAYGMGPACLQAKDGISVKGANNSNTTNPPPAPSKSPEEMRKLFIQRAKKIDKISRIGFPMAFLIFNMFYWIIYKIVRREDVHNQ
modifications: synthetic sequence of chimeric LGIC
YFP fluorescence quenching using CNL001 (1 nM CNL001, first column): 76.413% | YFP fluorescence quenching using CNL001 (1 nM CNL001, second column): 77.144% | YFP fluorescence quenching using TC-5619/Bradanicline (3 nM brd): 68.57% | YFP fluorescence quenching using Varenicline (3 nM var, first column): −4.061 | YFP fluorescence quenching using Varenicline (3 nM var, second column): −0.568 | YFP fluorescence quenching using CNL001 (10 nM CNL001, first column): 78.258% | YFP fluorescence quenching using CNL001 (10 nM CNL001, second column): 78.763% | YFP fluorescence quenching using TC-5619/Bradanicline (30 nM brd): 76.85% | YFP fluorescence quenching using Facinicline (30 nM fac): 82.51 | YFP fluorescence quenching using Varenicline (30 nM var, first column): 62.964 | YFP fluorescence quenching using Varenicline (30 nM var, second column): 63.631 | YFP fluorescence quenching using CNL001 (50 nM CNL001, first column): 79.757% | YFP fluorescence quenching using CNL001 (50 nM CNL001, second column): 79.327% | YFP fluorescence quenching using ABT-126 (50 nM abt): 2.2% | YFP fluorescence quenching using CNL001 (100 nM CNL001, first column): 79.011% | YFP fluorescence quenching using CNL001 (100 nM CNL001, second column): 79.948% | YFP fluorescence quenching using CNL002 (100 nM CNL002): 49.97% | YFP fluorescence quenching using ABT-126 (100 nM abt): 25.39% | YFP fluorescence quenching using AZD-0328 (100 nM azd0328): 82.48% | YFP fluorescence quenching using Facinicline (100 nM fac): 83.6 | YFP fluorescence quenching using ABT-126 (300 nM abt): 36.48% | YFP fluorescence quenching using AZD-0328 (300 nM azd0328): 82.04% | YFP fluorescence quenching using TC-5619/Bradanicline (300 nM brd): 78.49% | YFP fluorescence quenching using Facinicline (300 nM fac): 82.92 | YFP fluorescence quenching using Varenicline (300 nM var, first column): 74.912 | YFP fluorescence quenching using Varenicline (300 nM var, second column): 75.084 | YFP fluorescence quenching using Varenicline (500 nM var, first column): 76.346 | YFP fluorescence quenching using Varenicline (500 nM var, second column): 75.876 | YFP fluorescence quenching using CNL001 (1 uM CNL001, first column): 79.855% | YFP fluorescence quenching using CNL001 (1 uM CNL001, second column): 80.618% | YFP fluorescence quenching using CNL002 (1 uM CNL002): 67.8% | YFP fluorescence quenching using ABT-126 (1 uM abt): 50.76% | YFP fluorescence quenching using TC-6987 (1 uM tc6987): 80.13 | YFP fluorescence quenching using Varenicline (1 uM var, first column): 75.805 | YFP fluorescence quenching using Varenicline (1 uM var, second column): 74.856 | YFP fluorescence quenching using TC-6987 (10 uM tc6987): 81.29 | YFP fluorescence quenching using CNL002 (30 uM CNL002): 64.58% | YFP fluorescence quenching using AZD-0328 (30 uM azd0328): 81.8% | YFP fluorescence quenching using Facinicline (30 uM fac): 82.68 | YFP fluorescence quenching using TC-6987 (500 uM tc6987): 79.6 | percent quench of YFP fluorescence, 30 nM TC-6683: 30.14% | percent quench of YFP fluorescence, 300 nM TC-6683: 33.02% | percent quench of YFP fluorescence, 3 uM TC-6683: 41.68% | percent quench of YFP fluorescence, 30 uM TC-6683: 35.75% | percent quench of YFP fluorescence, 100 uM TC-6683: 24.32% | percent quench of YFP fluorescence, 10 uM ach: 15.29% | percent quench of YFP fluorescence, 30 uM ach (acetylcholine 30 uM): 66.56% | percent quench of YFP fluorescence, 100 uM ach: 81.31% | percent quench of YFP fluorescence, 1 mM ach: 80.77% | percent quench of YFP fluorescence, 3 mM ach: 77.31%
